Measured values published in PMC11729338, “Molecular Characterization and Interaction between Human VEGF-D and VEGFR-3” (Journal of Microbiology and Biotechnology, 2024).
Positions count from the first letter of the chain named. In names and notes the source's numbering stands. One block for each binder: values may come before it.

Legend:
[1] = molecular target: T1, His-tagged human VEGFR-3 (residues 30-326) (human, UniProt P35916 30-326); test: SPR; VEGFR-3 immobilised on a CM5 chip by amine coupling (2,300 response units); Biacore T100, 25°C; running buffer 50 mM HEPES (pH 7.7), 50 mM NaCl or 50 mM Tris-HCl (7.82), 50 mM NaCl; VEGF-D or mutant injected at 0.125, 0.25, 0.5, 1 uM, 10 ul/min; details: both partners purified
T1 construct: Vascular endothelial growth factor receptor 3 (VEGFR-3), human, residues 30-326 (extracellular Ig domains 1-3); The primers fit P30 to I326; the reverse primer has no stop codon, so vector residues and a second His tag may follow at the C-terminus (my surmise); also called Wild-type VEGFR-3; extracellular domains 1, 2 and 3
T1 sequence (looked up): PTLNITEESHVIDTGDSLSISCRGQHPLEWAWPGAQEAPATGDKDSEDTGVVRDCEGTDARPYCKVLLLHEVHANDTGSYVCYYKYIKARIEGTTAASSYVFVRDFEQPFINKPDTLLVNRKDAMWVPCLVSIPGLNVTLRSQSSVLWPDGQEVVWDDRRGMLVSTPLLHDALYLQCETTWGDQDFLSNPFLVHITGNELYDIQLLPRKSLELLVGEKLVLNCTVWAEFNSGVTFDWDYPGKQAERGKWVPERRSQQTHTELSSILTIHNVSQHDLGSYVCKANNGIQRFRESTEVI

[2] = molecular target: T2, His-tagged VEGFR-3 (residues 30-326) (human, UniProt P35916 30-326); test: pull-down; 50 ug GST-tagged VEGF-D or mutant on Glutathione Sepharose 4 Fast Flow beads, 50 ug His-VEGFR-3 in 1X PBS, on ice overnight; eluted with 30 mM glutathione; Western blot with anti-His and anti-GST; details: both partners purified
T2 construct: human VEGFR-3, residues 30-326 (extracellular domains 1, 2 and 3); Cloned in pET-28a; In the functional rows it stands for the VEGFR-3 of MDA-MB-231 cells; also called His-VEGFR-3; extracellular domains 1, 2, and 3; source: for SEC co-lysed with His-tagged VEGF-D cells and purified together on Ni-NTA
T2 sequence (looked up): T1 sequence (looked up)

[3] = molecular target: T2, His-tagged VEGFR-3 (residues 30-326); test: cell-based or functional assay
[4] = molecular target: T2, His-tagged VEGFR-3 (residues 30-326); test: SPR; VEGFR-3 immobilised on a CM5 chip by amine coupling (2,300 response units); VEGF-D or mutant injected at 0.125, 0.25, 0.5 and 1 uM, 10 ul/min; Biacore T100, 25 °C; 50 mM HEPES (pH 7.7), 50 mM NaCl or 50 mM Tris-HCl (7.82), 50 mM NaCl; details: both partners purified
[5] = molecular target: T2, His-tagged VEGFR-3 (residues 30-326); test: SEC; His-tagged VEGF-D and His-tagged VEGFR-3 cells co-lysed, purified together on Ni-NTA, incubated 24 h at 4 °C; Superdex 200 10/300 GL, 50 mM Tris-HCl (pH 7.82), 200 mM NaCl, 0.1% glycerol, sample 17 mg/ml, 0.4 ml/min; fractions by SDS-PAGE; details: partners not purified

- binding result [2]: binds
B2: GST-tagged VEGF-D (residues 89-205) E105A (ligand, human, UniProt O43915 89-205, looked up)
chain: FAATFYDIETLKVIDEAWQRTQCSPRETCVEVASELGKSTNTFFKPPCVNVFRCGGCCNEESLICMNTSTSYISKQLFEISVPLTSVPELVPVKVANHTGCKCLPTAPRHPYSIIRR
notes: human VEGF-D, residues 89-205, E105A; Cloned in pGEX-4T-1

- binding result [2]: binds
B4: GST-tagged VEGF-D (residues 89-205) I102A (ligand, human, UniProt O43915 89-205, looked up)
chain: B2 chain with I14A, A17E
notes: human VEGF-D, residues 89-205, I102A; Cloned in pGEX-4T-1

- Kd [4]: 0.96 µM
B5: His-tagged VEGF-D (residues 89-205) I102A/E105A (ligand, human, UniProt O43915 89-205, looked up)
chain: B2 chain with I14A
notes: human VEGF-D, residues 89-205, I102A and E105A; also called double mutated form of VEGF-D; source: E. coli BL21 (DE3), purified

- Kd [1]: 0.956 µM
- koff [1]: 0.0015 s⁻¹
- kon [1]: 1570 M⁻¹ s⁻¹
B7: His-tagged VEGF-D (residues 89-205) I102A/E105A (ligand, human, UniProt O43915 89-205, looked up)
chain: B2 chain with I14A
notes: Vascular endothelial growth factor D (VEGF-D), human, residues 89-205, double mutant I102A/E105A; same limits as Dm1 (see its note on the primers); source: E. coli BL21 (DE3), purified

- Kd [4]: 0.53 µM
B8: His-tagged VEGF-D (residues 89-205) D103A/Q110A (ligand, human, UniProt O43915 89-205, looked up)
chain: B2 chain with D15A, A17E, Q22A
notes: human VEGF-D, residues 89-205, D103A and Q110A; also called D103A/Q110A mutant; double mutated form of VEGF-D; source: E. coli BL21 (DE3), purified

The next lines start with the binder.

B1: His-tagged wild-type human VEGF-D (residues 89-205) (ligand, UniProt O43915 89-205, looked up)
chain: B2 chain with A17E
notes: Vascular endothelial growth factor D (VEGF-D), human, residues 89-205 (major mature form); Cloned in pET-28a; also called Wild-type VEGF-D; major form
- Kd [1]: 0.268 µM
- koff [1]: 0.00115 s⁻¹
- kon [1]: 4310 M⁻¹ s⁻¹

B3: His-tagged VEGF-D (residues 89-205), wild type (ligand, human, UniProt O43915 89-205, looked up)
chain: B2 chain with A17E
notes: human VEGF-D, residues 89-205 (major mature form); Cloned in pET-28a; also called wild-type VEGF-D; mature VEGF-D; source: for SEC co-lysed with His-tagged VEGFR-3 cells and purified together on Ni-NTA
- MTT cell viability of MDA-MB-231 cells, 0-600 ng VEGF-D, 24 h; EC50 [3]: 238 ng
- Kd [4]: 0.27 µM
- stoichiometry N [5]: 1

B6: His-tagged VEGF-D (residues 89-205) D103A/Q110A (ligand, human, UniProt O43915 89-205, looked up)
chain: B2 chain with D15A, A17E, Q22A
notes: Vascular endothelial growth factor D (VEGF-D), human, residues 89-205, double mutant D103A/Q110A; same limits as Dm1 (see its note on the primers); source: E. coli BL21 (DE3), purified
- Kd [1]: 0.533 µM
- koff [1]: 0.00103 s⁻¹
- kon [1]: 1940 M⁻¹ s⁻¹
